Biological target: T1, MBP-GLD-1(135-336) WT (C. elegans, UniProt Q17339 135-336)
T1 sequence: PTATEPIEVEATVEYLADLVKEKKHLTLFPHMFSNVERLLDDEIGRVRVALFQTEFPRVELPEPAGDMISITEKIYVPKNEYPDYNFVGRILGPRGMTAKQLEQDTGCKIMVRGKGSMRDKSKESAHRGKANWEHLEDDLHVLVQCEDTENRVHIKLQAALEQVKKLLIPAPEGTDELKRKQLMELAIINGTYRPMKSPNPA
Experiment: EMSA

UUUUUCUUAUUCUAGACUAAUAUUGUAAGCU (ssRNA) [glp-1 3'UTR fragment]
binding result: binds

Source: PMC9200065
